Strand notation (5' to 3'): a small letter for the sugar, then the base; units joined by * are phosphorothioate-linked, units joined directly phosphodiester-linked; [ ] holds rarer units or linkages, { } end groups; capitals alone tell only the bases. m = 2'-O-methyl; r = 2'-OH (RNA)
How the values were obtained:
[1] = test system: mouse TTR; experiment: Serum mouse TTR ELISA in mice dosed with LNP formulations (Table 28); type: in vivo; settings: wild type CD-1 mice; 1, 0.3, 0.1, 0.03, or 0.01 mg/kg; FIG. 15B
Experimental: Blood was collected and the serum was isolated as indicated. The total mouse TTR serum levels were determined using a Mouse Prealbumin (Transthyretin) ELISA Kit (Aviva Systems Biology, Cat. OKIA00111); rat TTR serum levels were measured using a rat specific ELISA kit (Aviva Systems Biology catalog number OKIA00159); human TTR serum levels were measured using a human specific ELISA kit (Aviva Systems Biology catalog number OKIA00081); each according to manufacture's protocol. Briefly, sera were serial diluted with kit sample diluent to a final dilution of 10,000-fold, or 5,000-fold when measuring human TTR in mouse sera. […] The absorbance of the contents was measured on the Spectramax M5 plate reader with analysis using SoftmaxPro version 7.0 software. Serum TTR levels were quantitated off the standard curve using 4 parameter logistic fit and expressed as ug/mL of serum or percent knockdown relative control (vehicle treated) animals.
In separate experiments using wild type CD-1 mice, an LNP formulation comprising guide G000502, which is cross homologous between mouse and cyno, was tested in a dose response study. […] Liver editing results were determined using primers designed to amplify the region of interest for NGS analysis. […]

[2] = test system: human TTR protein; experiment: Human TTR protein ELISA in serum and cerebrospinal fluid of V30M mice; type: in vivo, mouse; settings: V30M humanized mice, single 1 mg/kg dose, 8 weeks post treatment
Experimental: (§1) A well-established humanized transgenic mouse model of hereditary ATTR amyloidosis that expresses the V30M pathogenic mutant form of human TTR protein was used in this Example. This mouse model recapitulates the TTR deposition phenotype in tissues observed in ATTR patients, including within the peripheral nervous system and gastrointestinal (GI) tract (See Santos et al., Neurobiol Aging. 2010 February; 31(2):280-9).
(§2) Mice (aged approximately 4-5 months) were dosed with LNP formulations prepared using the cross-flow and TFF procedures as described in Example 1. The LNPs were formulated with an N:P ratio of 6.0 and contained Lipid A, Cholesterol, DSPC, and PEG2k-DMG in a 50:38:9:2 molar ratio, respectively. The LNPs contained Cas9 mRNA (SEQ ID NO: 1) and either G000481 (“G481”) or a non-targeting control guide G000395 (“G395”; SEQ ID NO: 273), in a 1:1 ratio of gRNA:mRNA by weight.
(§3) Mice were injected via the lateral tail vein as described in Example 1 with a single 1 mg/kg (of total RNA content) dose of LNP with an n=10/group. […] Human TTR protein levels were measured in serum and cerebrospinal fluid (CSF) by ELISA as previously described by Butler et al., Amyloid. […] Other tissues (stomach, colon, sciatic nerve, dorsal root ganglion (DRG)) were collected and processed for semi-quantitative immunohistochemistry as previously described by Gonsalves et al., Amyloid. […]

[3] = test system: TTR protein amyloid deposition; experiment: Semi-quantitative immunohistochemistry of TTR in stomach, colon, sciatic nerve, DRG of V30M mice; type: in vivo, mouse; settings: 8 weeks post-treatment, single 1 mg/kg dose
Experimental: as §1, §2, §3

Molecule | Serum mouse TTR levels, dose response [1] | TTR protein levels in CSF [2] | Knockdown of TTR plasma levels ([2]; p<0.001) | Reduction in TTR staining across the treated tissues [3]
G000502: TTR Cyno specific sgRNA modified sequence, SEQ ID No. 114; guide sequence of CR000689; cross homologous between mouse and cyno (nucleic acid) guide: mA*mC*mA*rCrArArArUrArCrCrArGrUrCrCrArGrCrGrGrUrUrUrUrArGrAmGmCmUmAmGmAmAmAmUmAmGmCrArArGrUrUrArArArArUrArArGrGrCrUrArGrUrCrCrGrUrUrArUrCrAmAmCmUmUmGmAmAmAmAmAmGmUmGmGmCmAmCmCmGmAmGmUmCmGmGmUmGmCmU*mU*mU*mU | A dose response for both editing and serum TTR levels was evident | – | – | –
G000481: TTR sgRNA modified sequence, Human, SEQ ID No. 88; guide sequence of CR003345 (nucleic acid) guide: mU*mC*mU*rArGrArArCrUrUrUrGrArCrCrArUrCrArGrGrUrUrUrUrArGrAmGmCmUmAmGmAmAmAmUmAmGmCrArArGrUrUrArArArArUrArArGrGrCrUrArGrUrCrCrGrUrUrArUrCrAmAmCmUmUmGmAmAmAmAmAmGmUmGmGmCmAmCmCmGmAmGmUmCmGmGmUmGmCmU*mU*mU*mU | – | not in CSF | greater than 99% | ≥ 85%

From patent US11795460B2, “Compositions and methods for TTR gene editing and treating ATTR amyloidosis” (Intellia Therapeutics, Inc., priority 2017, dated 2023)
